According to the supplement of paper PMC10266784:

B1: library; numbered along this chain (parent)
chain: MAAAAAAAAEQQSSNGPVKKSMREKAVERRSVNKEHNSNFKAGYIPIDEDRLHKTGLRGRKGNLAICVIILLFILAVINLIITLVIWAVIRIGPNGCDSMEFHESGLLRFKQVSDMGVIHPLYKSTVGGRRNENLVITGNNQPIVFQQGTTKLSVENNKTSITSDIGMQFFDPRTQNILFSTDYETHEFHLPSGVKSLNVQKASTERITSNATSDLNIKVDGRAIVRGNEGVFIMGKTIEFHMGGNMELKAENSIILNGSVMVSTTRLPSSSSGDQLGSGDWVRYKLCMCADGTLFKVQVTSQNMGCQISDNPCGNTH

Variants of: B1
Test: SGCB cell-surface expression functional score (HA stain, bin4 vs bin1, normalised to synonymous) (log10 ratio); higher = more cell-surface SGCB (functional)
Procedure: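 Deep mutational scan of full-length human SGCB (YFP-SGCB-HA, NNN codon sublibraries A-F) delivered by lentivirus at low MOI into ADG-HEK293 cells stably expressing SGCA, SGCD and SGCG. YFP-positive cells were stained for surface HA on unpermeabilized cells and FACS-sorted into bins. The functional score is log10(frequency in high bin 4 / frequency in low bin 1), normalised per chunk so that synonymous variants have mean 0 and SD 0.5. Scores are the median over codons and over duplicate biological replicates; scores below -0.5 are called non-functional. Scale: negative means deleterious.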

| Variant | SGCB cell-surface expression functional score (log10) |
| --- | --- |
| MWAAAAAAAEQQSSNGPVKKSMREKAVERRSVNKEHNSNFKAGYIPIDEDRLHKTGLRGRKGNLAICVIILLFILAVINLIITLVIWAVIRIGPNGCDSMEFHESGLLRFKQVSDMGVIHPLYKSTVGGRRNENLVITGNNQPIVFQQGTTKLSVENNKTSITSDIGMQFFDPRTQNILFSTDYETHEFHLPSGVKSLNVQKASTERITSNATSDLNIKVDGRAIVRGNEGVFIMGKTIEFHMGGNMELKAENSIILNGSVMVSTTRLPSSSSGDQLGSGDWVRYKLCMCADGTLFKVQVTSQNMGCQISDNPCGNTH [A2W] | -0.4 |
| MTAAAAAAAEQQSSNGPVKKSMREKAVERRSVNKEHNSNFKAGYIPIDEDRLHKTGLRGRKGNLAICVIILLFILAVINLIITLVIWAVIRIGPNGCDSMEFHESGLLRFKQVSDMGVIHPLYKSTVGGRRNENLVITGNNQPIVFQQGTTKLSVENNKTSITSDIGMQFFDPRTQNILFSTDYETHEFHLPSGVKSLNVQKASTERITSNATSDLNIKVDGRAIVRGNEGVFIMGKTIEFHMGGNMELKAENSIILNGSVMVSTTRLPSSSSGDQLGSGDWVRYKLCMCADGTLFKVQVTSQNMGCQISDNPCGNTH [A2T] | 0.11 |
| MDAAAAAAAEQQSSNGPVKKSMREKAVERRSVNKEHNSNFKAGYIPIDEDRLHKTGLRGRKGNLAICVIILLFILAVINLIITLVIWAVIRIGPNGCDSMEFHESGLLRFKQVSDMGVIHPLYKSTVGGRRNENLVITGNNQPIVFQQGTTKLSVENNKTSITSDIGMQFFDPRTQNILFSTDYETHEFHLPSGVKSLNVQKASTERITSNATSDLNIKVDGRAIVRGNEGVFIMGKTIEFHMGGNMELKAENSIILNGSVMVSTTRLPSSSSGDQLGSGDWVRYKLCMCADGTLFKVQVTSQNMGCQISDNPCGNTH [A2D] | -0.07 |
| MLAAAAAAAEQQSSNGPVKKSMREKAVERRSVNKEHNSNFKAGYIPIDEDRLHKTGLRGRKGNLAICVIILLFILAVINLIITLVIWAVIRIGPNGCDSMEFHESGLLRFKQVSDMGVIHPLYKSTVGGRRNENLVITGNNQPIVFQQGTTKLSVENNKTSITSDIGMQFFDPRTQNILFSTDYETHEFHLPSGVKSLNVQKASTERITSNATSDLNIKVDGRAIVRGNEGVFIMGKTIEFHMGGNMELKAENSIILNGSVMVSTTRLPSSSSGDQLGSGDWVRYKLCMCADGTLFKVQVTSQNMGCQISDNPCGNTH [A2L] | 0.2 |
| MHAAAAAAAEQQSSNGPVKKSMREKAVERRSVNKEHNSNFKAGYIPIDEDRLHKTGLRGRKGNLAICVIILLFILAVINLIITLVIWAVIRIGPNGCDSMEFHESGLLRFKQVSDMGVIHPLYKSTVGGRRNENLVITGNNQPIVFQQGTTKLSVENNKTSITSDIGMQFFDPRTQNILFSTDYETHEFHLPSGVKSLNVQKASTERITSNATSDLNIKVDGRAIVRGNEGVFIMGKTIEFHMGGNMELKAENSIILNGSVMVSTTRLPSSSSGDQLGSGDWVRYKLCMCADGTLFKVQVTSQNMGCQISDNPCGNTH [A2H] | 0.34 |
| MVAAAAAAAEQQSSNGPVKKSMREKAVERRSVNKEHNSNFKAGYIPIDEDRLHKTGLRGRKGNLAICVIILLFILAVINLIITLVIWAVIRIGPNGCDSMEFHESGLLRFKQVSDMGVIHPLYKSTVGGRRNENLVITGNNQPIVFQQGTTKLSVENNKTSITSDIGMQFFDPRTQNILFSTDYETHEFHLPSGVKSLNVQKASTERITSNATSDLNIKVDGRAIVRGNEGVFIMGKTIEFHMGGNMELKAENSIILNGSVMVSTTRLPSSSSGDQLGSGDWVRYKLCMCADGTLFKVQVTSQNMGCQISDNPCGNTH [A2V] | 0.12 |
| MFAAAAAAAEQQSSNGPVKKSMREKAVERRSVNKEHNSNFKAGYIPIDEDRLHKTGLRGRKGNLAICVIILLFILAVINLIITLVIWAVIRIGPNGCDSMEFHESGLLRFKQVSDMGVIHPLYKSTVGGRRNENLVITGNNQPIVFQQGTTKLSVENNKTSITSDIGMQFFDPRTQNILFSTDYETHEFHLPSGVKSLNVQKASTERITSNATSDLNIKVDGRAIVRGNEGVFIMGKTIEFHMGGNMELKAENSIILNGSVMVSTTRLPSSSSGDQLGSGDWVRYKLCMCADGTLFKVQVTSQNMGCQISDNPCGNTH [A2F] | -0.48 |
| MCAAAAAAAEQQSSNGPVKKSMREKAVERRSVNKEHNSNFKAGYIPIDEDRLHKTGLRGRKGNLAICVIILLFILAVINLIITLVIWAVIRIGPNGCDSMEFHESGLLRFKQVSDMGVIHPLYKSTVGGRRNENLVITGNNQPIVFQQGTTKLSVENNKTSITSDIGMQFFDPRTQNILFSTDYETHEFHLPSGVKSLNVQKASTERITSNATSDLNIKVDGRAIVRGNEGVFIMGKTIEFHMGGNMELKAENSIILNGSVMVSTTRLPSSSSGDQLGSGDWVRYKLCMCADGTLFKVQVTSQNMGCQISDNPCGNTH [A2C] | 0.1 |
| MNAAAAAAAEQQSSNGPVKKSMREKAVERRSVNKEHNSNFKAGYIPIDEDRLHKTGLRGRKGNLAICVIILLFILAVINLIITLVIWAVIRIGPNGCDSMEFHESGLLRFKQVSDMGVIHPLYKSTVGGRRNENLVITGNNQPIVFQQGTTKLSVENNKTSITSDIGMQFFDPRTQNILFSTDYETHEFHLPSGVKSLNVQKASTERITSNATSDLNIKVDGRAIVRGNEGVFIMGKTIEFHMGGNMELKAENSIILNGSVMVSTTRLPSSSSGDQLGSGDWVRYKLCMCADGTLFKVQVTSQNMGCQISDNPCGNTH [A2N] | 0.38 |
| MEAAAAAAAEQQSSNGPVKKSMREKAVERRSVNKEHNSNFKAGYIPIDEDRLHKTGLRGRKGNLAICVIILLFILAVINLIITLVIWAVIRIGPNGCDSMEFHESGLLRFKQVSDMGVIHPLYKSTVGGRRNENLVITGNNQPIVFQQGTTKLSVENNKTSITSDIGMQFFDPRTQNILFSTDYETHEFHLPSGVKSLNVQKASTERITSNATSDLNIKVDGRAIVRGNEGVFIMGKTIEFHMGGNMELKAENSIILNGSVMVSTTRLPSSSSGDQLGSGDWVRYKLCMCADGTLFKVQVTSQNMGCQISDNPCGNTH [A2E] | -0.61 |
| MKAAAAAAAEQQSSNGPVKKSMREKAVERRSVNKEHNSNFKAGYIPIDEDRLHKTGLRGRKGNLAICVIILLFILAVINLIITLVIWAVIRIGPNGCDSMEFHESGLLRFKQVSDMGVIHPLYKSTVGGRRNENLVITGNNQPIVFQQGTTKLSVENNKTSITSDIGMQFFDPRTQNILFSTDYETHEFHLPSGVKSLNVQKASTERITSNATSDLNIKVDGRAIVRGNEGVFIMGKTIEFHMGGNMELKAENSIILNGSVMVSTTRLPSSSSGDQLGSGDWVRYKLCMCADGTLFKVQVTSQNMGCQISDNPCGNTH [A2K] | 0.23 |
| MYAAAAAAAEQQSSNGPVKKSMREKAVERRSVNKEHNSNFKAGYIPIDEDRLHKTGLRGRKGNLAICVIILLFILAVINLIITLVIWAVIRIGPNGCDSMEFHESGLLRFKQVSDMGVIHPLYKSTVGGRRNENLVITGNNQPIVFQQGTTKLSVENNKTSITSDIGMQFFDPRTQNILFSTDYETHEFHLPSGVKSLNVQKASTERITSNATSDLNIKVDGRAIVRGNEGVFIMGKTIEFHMGGNMELKAENSIILNGSVMVSTTRLPSSSSGDQLGSGDWVRYKLCMCADGTLFKVQVTSQNMGCQISDNPCGNTH [A2Y] | 0.14 |
| MQAAAAAAAEQQSSNGPVKKSMREKAVERRSVNKEHNSNFKAGYIPIDEDRLHKTGLRGRKGNLAICVIILLFILAVINLIITLVIWAVIRIGPNGCDSMEFHESGLLRFKQVSDMGVIHPLYKSTVGGRRNENLVITGNNQPIVFQQGTTKLSVENNKTSITSDIGMQFFDPRTQNILFSTDYETHEFHLPSGVKSLNVQKASTERITSNATSDLNIKVDGRAIVRGNEGVFIMGKTIEFHMGGNMELKAENSIILNGSVMVSTTRLPSSSSGDQLGSGDWVRYKLCMCADGTLFKVQVTSQNMGCQISDNPCGNTH [A2Q] | 0.19 |
| MGAAAAAAAEQQSSNGPVKKSMREKAVERRSVNKEHNSNFKAGYIPIDEDRLHKTGLRGRKGNLAICVIILLFILAVINLIITLVIWAVIRIGPNGCDSMEFHESGLLRFKQVSDMGVIHPLYKSTVGGRRNENLVITGNNQPIVFQQGTTKLSVENNKTSITSDIGMQFFDPRTQNILFSTDYETHEFHLPSGVKSLNVQKASTERITSNATSDLNIKVDGRAIVRGNEGVFIMGKTIEFHMGGNMELKAENSIILNGSVMVSTTRLPSSSSGDQLGSGDWVRYKLCMCADGTLFKVQVTSQNMGCQISDNPCGNTH [A2G] | 0.17 |
| MMAAAAAAAEQQSSNGPVKKSMREKAVERRSVNKEHNSNFKAGYIPIDEDRLHKTGLRGRKGNLAICVIILLFILAVINLIITLVIWAVIRIGPNGCDSMEFHESGLLRFKQVSDMGVIHPLYKSTVGGRRNENLVITGNNQPIVFQQGTTKLSVENNKTSITSDIGMQFFDPRTQNILFSTDYETHEFHLPSGVKSLNVQKASTERITSNATSDLNIKVDGRAIVRGNEGVFIMGKTIEFHMGGNMELKAENSIILNGSVMVSTTRLPSSSSGDQLGSGDWVRYKLCMCADGTLFKVQVTSQNMGCQISDNPCGNTH [A2M] | 0.02 |
| MSAAAAAAAEQQSSNGPVKKSMREKAVERRSVNKEHNSNFKAGYIPIDEDRLHKTGLRGRKGNLAICVIILLFILAVINLIITLVIWAVIRIGPNGCDSMEFHESGLLRFKQVSDMGVIHPLYKSTVGGRRNENLVITGNNQPIVFQQGTTKLSVENNKTSITSDIGMQFFDPRTQNILFSTDYETHEFHLPSGVKSLNVQKASTERITSNATSDLNIKVDGRAIVRGNEGVFIMGKTIEFHMGGNMELKAENSIILNGSVMVSTTRLPSSSSGDQLGSGDWVRYKLCMCADGTLFKVQVTSQNMGCQISDNPCGNTH [A2S] | 0.14 |
| MIAAAAAAAEQQSSNGPVKKSMREKAVERRSVNKEHNSNFKAGYIPIDEDRLHKTGLRGRKGNLAICVIILLFILAVINLIITLVIWAVIRIGPNGCDSMEFHESGLLRFKQVSDMGVIHPLYKSTVGGRRNENLVITGNNQPIVFQQGTTKLSVENNKTSITSDIGMQFFDPRTQNILFSTDYETHEFHLPSGVKSLNVQKASTERITSNATSDLNIKVDGRAIVRGNEGVFIMGKTIEFHMGGNMELKAENSIILNGSVMVSTTRLPSSSSGDQLGSGDWVRYKLCMCADGTLFKVQVTSQNMGCQISDNPCGNTH [A2I] | 0.13 |
| MPAAAAAAAEQQSSNGPVKKSMREKAVERRSVNKEHNSNFKAGYIPIDEDRLHKTGLRGRKGNLAICVIILLFILAVINLIITLVIWAVIRIGPNGCDSMEFHESGLLRFKQVSDMGVIHPLYKSTVGGRRNENLVITGNNQPIVFQQGTTKLSVENNKTSITSDIGMQFFDPRTQNILFSTDYETHEFHLPSGVKSLNVQKASTERITSNATSDLNIKVDGRAIVRGNEGVFIMGKTIEFHMGGNMELKAENSIILNGSVMVSTTRLPSSSSGDQLGSGDWVRYKLCMCADGTLFKVQVTSQNMGCQISDNPCGNTH [A2P] | 0.24 |
| MRAAAAAAAEQQSSNGPVKKSMREKAVERRSVNKEHNSNFKAGYIPIDEDRLHKTGLRGRKGNLAICVIILLFILAVINLIITLVIWAVIRIGPNGCDSMEFHESGLLRFKQVSDMGVIHPLYKSTVGGRRNENLVITGNNQPIVFQQGTTKLSVENNKTSITSDIGMQFFDPRTQNILFSTDYETHEFHLPSGVKSLNVQKASTERITSNATSDLNIKVDGRAIVRGNEGVFIMGKTIEFHMGGNMELKAENSIILNGSVMVSTTRLPSSSSGDQLGSGDWVRYKLCMCADGTLFKVQVTSQNMGCQISDNPCGNTH [A2R] | 0.03 |
